Drawing on PMC9418810, this text covers AcANS or AcF3H1 promoter-luciferase reporter activation in Arabidopsis leaf protoplasts, coexpression of AcB2 and AcMYB1 compared with AcMYB1 alone for 1 substance.

In this assay the target is AcMYB1 (full length) in the AD plasmid pGADT7 (Allium cepa (onion)).

Consider “AcB2 (full length, 1–615 aa) in the BD plasmid pGBKT7 (natural protein)”, for which the AcANS or AcF3H1 promoter-luciferase reporter activation in Arabidopsis leaf protoplasts, coexpression of AcB2 and AcMYB1 compared with AcMYB1 alone was above 2.5 fold.
